# Laboratory results from the DeepSol protein solubility set.
# Experiment: soluble on expression in E. coli; label from the status in PepcDB or PDB records
row,Sequence,soluble on expression in E. coli
1,MMFNFYQFLYNLQNVSPFIDFSVLKQLTHTKMRENEPARFETRSFSQLIDHARSWKTEVRGMTTQGFTKISLMRAEKDRLNMYAISSVPGTNTQSIFSVTIPLELVEKAQVADRKFELKLKSGYNVDSYIRKTPPSAEFTLQCERQRSQVVTGISDYEIRNGKMILMAGDQLFRYNPLNEALAAIPIAVPDDQSSTEPMDISEGSITSGTKGCSNEAPQSSTVPPVTRIPIKKPTTSTEKPATAPPTNNFVSSAKVCPADSSLLAYVLNKQVYIEKNGKIIHRTSSNSKHITNGVPSYIVQEELERFEGIWWSESKTRLLYEHVNEEKVAESQFGVNGDPPVAPMKYPRAGTKNAYSTLRMVILENGKAYDVPLKDEVIYKHCPFYEYITRAGFFSDGTTVWVQVMSRDQAQCSLLLIPYTDFLLPEELGGSIKEDNLQLSTDLNMGVWDDKSHEETMEKPPRGKLRGTVQIHKARNDYWINTHNAIYPLKITDEEHPMYEFIYCLEKPNGSCLALISAELDQNGYCRHTEEKLLMAENFSINKSMGIVVDEVRELVYYVANESHPTEWNICVSHYRTGQHAQLTESGICFKSERANGKLALDLDHGFACYMTSVGSPAECRFYSFRWKENEVLPSTVYAANITVSGHPGQPDLHFDSPEMIEFQSKKTGLMHYAMILRPSNFDPYKKYPVFHYVYGGPGIQIVHNDFSWIQYIRFCRLGYVVVFIDNRGSAHRGIEFERHIHKKMGTVEVEDQVEGLQMLAERTGGFMDMSRVVVHGWSYGGYMALQMIAKHPNIYRAAIAGGAVSDWRLYDTAYTERYMGYPLEEHVYGASSITGLVEKLPDEPNRLMLVHGLMDENVHFAHLTHLVDECIKKGKWHELVIFPNERHGVRNNDASIYLDARMMYFAQQAIQGFGPTTAAPRQGPL,not soluble
2,DFDFEGNLALFDKAAVFEEIDTYERRSGTRSRGIPNERPTRYRHDENILESEPIVYRRIIVPHNVSKEFCTDSGLVVPSISYELHKKLLSVAEKHGLTLERRLEMTGVCASQMALTLLGGPNRLNPKNVHQRPTVALLCGPHVKGAQGISCGRHLANHDVQVILFLPNFVKMLESITNELSLFSKTQGQQVSSLKDLPTSPVDLVINCLDCPENVFLRDQPWYKAAVAWANQNRAPVLSIDPPVHEVEQGIDAKWSLALGLPLPLGEHAGRIYLCDIGIPQQVFQEVGINYHSPFGCKFVIPLHSA,soluble
3,MGVKTFQFPFAEQLEKVAEQFPTFQILNEEGEVVNEEAMPELSDEQLKELMRRMVYTRILDQRSISLNRQGRLGFYAPTAGQEASQIASHFALEKEDFILPGYRDVPQIIWHGLPLYQAFLFSRGHFHGNQIPEGVNVLPPQIIIGAQYIQAAGVALGLKMRGKKAVAITYTGDGGTSQGDFYEGINFAGAFKAPAIFVVQNNRFAISTPVEKQTVAKTLAQKAVAAGIPGIQVDGMDPLAVYAAVKAARERAINGEGPTLIETLCFRYGPHTMSGDDPTRYRSKELENEWAKKDPLVRFRKFLEAKGLWSEEEENNVIEQAKEEIKEAIKKADETPKQKVTDLISIMFEELPFNLKEQYEIYKEKESK,soluble
4,MGHHHHHHSHMACLNPVPKLYRSVIEDVIEGVRNLFAEEGIEEQVLKDLKQLWETKVLQSKATEDFFRNSIQSPLFTLQLPHSLHQTLQSSTASLVIPAGRTLPSFTTAELGTSNSSANFTFPGYPIHVPAGVTLQTVSGHLYKVNVPIMVTETSGRAGILQHPIQQVFQQLGQPSVIQTSVPQLNPWSLQATTEKSQRIETVLQQPAILPSGPVDRKHLENATSDILVSPGNEHKIVPEALLCHQESSHYISLPGVVFSPQVSQTNSD,not soluble
5,MSLAEFIYTMKKVRKAHGDKVILDDVTLSFYPGAKIGVVGPNGAGKSSVLRIMAGLDKPNNGDAFLATGATVGILQQEPPLNEDKTVRGNVEEGMGDIKIKLDRFNEVAELMATDYTDELMEEMGRLQEELDHADAWDLDAQLEQAMDALRCPPADEPVTNLSGGERRRVALCKLLLSKPDLLLLDEPTNHLDAESVQWLEQHLASYPGAILAVTHDRYFLDNVAEWILELDRGRAYPYEGNYSTYLEKKAERLAVQGRKDAKLQKRLTEELAWVRSGAKARQAKSKARLQRYEEMAAEAEKTRKLDFEEIQIPVGPRLGNVVVEVDHLDKGYDGRALIKDLSFSLPRNGIVGVIGPNGVGKTTLFKTIVGLETPDSGSVKVGETVKLSYVDQARAGIDPRKTVWEVVSDGLDYIQVGQTEVPSRAYVSAFGFKGPDQQKPAGVLSGGERNRLNLALTLKQGGNLILLDEPTNDLDVETLGSLENALLNFPGCAVVISHDRWFLDRTCTHILAWEGDDDNEGHHHHHH,not soluble
6,MAHHHHHHMRKPGRKIVYVPDDDAQFLGSMSDPLPPRVSDLLRLKSPSMSDNGHAETGSNGTTGSPGYESIGNELLVSYGGYTLADGSGTLHPPTTRRNGAQLYKSLRKCCRFLRASLSDSMAPKLETDSESSWSCPSFCSSDPTSSSEYSDVSPQRGRRRAAKQANEQTGYNAMIVVQLRRLLHKRGLSTCGIKKVLVARLEQSDMQLSKSKEEGEEQKEQEELDGSAGECTKTERSEDVCSASCGNVSGRVTAAGPTSMLSSLLSFGSRLFRASTGSVSEGGHVSGLKRRRSV,not soluble
7,GAKSEMAFAGKGEISPRAITMWDFSWLERRWPGAGYEDWDQVLDELSERGYNAIRIDAYPHLIAENPMKKWLLKEVWNQQDWGSPDMNEVQVQPNLNLFLSKCKERDIKVGLSSWYRLDVDEVCLKLDTPEKLADCWLTILRSIEEDGLLDTILYVDLCNEWPGDSWAPFFAKTYPNVGWGNWYKEESLRWMKTSLEKMRQVYPDMPFLYSFDHGDVKKYEEVDCSFLDLYEHHIWMAQQNGGEFYKLVGYGYNRFLPDDYKNVVKNAERVYRERPGYWQKLLTDKIELMASVARKNRRPLVTTECWGLVDYKDWPLLKWDWVKDLCELGTITAARTGMWVGVATSNFCGPQFAGMWRDVEWHKRLTSIIRSSPLDESLTKNNEVAAKLLKRL,soluble
8,MSLKQISIRDVAALAGVSVGSASRVINGAANVTPDVRERVDRAIAALRYRPNHAAQSLRSRTSKTIGCMFSDVANPLYARAFRALEEHFRREGYMLLLANGLNDAEREIDIIQTFQLRGMDGVILAPGNERHPGVLDAVRRLSMPAVIYDRDLAVDADAVLFDHVAGVKAAIHHLVELGHTRIALALWQVKSRPVRRRIEGYKAAFKAAGLPVPDLILQEPTPTSSAFDDVTRLLQLPDPPTAFLAQGTHTLTSTLRAIAKQGLRVPEDVSVIGIGDTDFAQTYDPPLTVLRTPTDEVAAHAVEMLLSRLAAKGDASLSPRKALIQFDLILRESCAPVAREGHHHHHH,not soluble
9,MGSDKIHHHHHHMALKHYKNSDSTVFNDAKALFDLNKNILLKGPTGSGKTKLAETLSEVVDTPMHQVNCSVDLDTESLLGFKTIKTNAEGQQEIVFVDGPVIKAMKEGHILYIDEINMAKPETLPVLNGVLDYRRQITNPYTGEVIKAVPGFNVIAAINEGYVGTLPMNEALKNRFVVIHVDYIDGDILKNVIKEQSLLQDDKQIEQIIKFNEDLRTMSKQGQISEEAASIRALLDLCDLITVMPVERAIKRTIIDKLEDEREQQAIYNAVELNF,not soluble
10,MGSDKIHHHHHHMRIEVKLLPLKDNPILPFNYNYEVYSQILEKVNSIEPTIAKLLSSPHGFWTFSRIIVRKRKILPDKGIEILSDDVSLYISSSNEDIIRAIAEAVEKSPEFKIGELSFLVGDIKAIKVKELGKENVFSTLSPIVVRTVKFEGNKLRHWDLYPHDELFMDRLRKVMILRYSEVMGETPKDRDFTIEVLKFKPTRLMVGSSYIRGSLMVFRYAGSEEIARFGYENGFGEKTGLGFGMVKLIE,not soluble
11,NYDPFVRHSVTVKADRKTAFKTFLEGFPEWWPNNFRTTKVGAPLGVDKKGGRWYEIDEQGEEHTFGLIRKVDEPDTLVIGWRLNGFGRIDPDNSSEFTVTFVADGQKKTRVDVEHTHFDRMGTKHAKRVRNGMDKGWPTILQSFQDKIDEEGAKK,soluble
12,MRITIAGKIGSGKSTVSSELSRITGYTVYSSGTFFRETARKMNMSIEDFNVYSESHPEADYYTDETQKAFMQANDNIIVEGRLAGWISYLNGINAFRIFLYATYYTRLVRFAGRENIDIDSARDLMEKREKSEKERYRKLYGIDVDDLSIYDIVVNTEFMKPPEIAVYIANRIDEMSRKDIFTPRILR,not soluble
13,PIELLPETPSQTAGPYVHIGLALEAAGNPTRDQEIWNRLAKPDAPGEHILLLGQVYDGNGHLVRDSFLEVWQADANGEYQDAYNLENAFNSFGRTATTFDAGEWTLHTVKPGVVNNAAGVPMAPHINISLFARGINIHLHTRLYFDDEAQANAKCPVLNLIEQPQRRETLIAKRCEVDGKTAYRFDIRIQGEGETVFFDF,soluble
14,MSLEEWEKHMQNFIPDMLVTFPLAPRSDEYFYEHIEANDGAVHLRGGFFVGGDEGSASVDFSITDPDGDIIYKKSKSEGLFYFTAKKKGTYSFIVSNHQWLESRMVTFAIGRGNETALMPKHVQTAGEMADTLQNQLRDIQLLLLQQEKENGSSSSVSEEKADATASAASAGGLTDREMKQVIYGACRKVDARNATEIPSCRGIPLTEVHRHWVIEEKERIARMGGTIENGRVNGSLEVTRSFGDISLKRYGVSCVPTVKKFTLDPALDEFVLMGCDGFWNCWTASEALNLASEAWEKEIRSSKVHSRPVDPQNVSKQLVEHVLIDKKSQDNITVLLLKISRKEGHHHHHH,soluble
15,MYFPSGSDPFAVGEDLGVWAPADHQRIIAKLTTGLGVLFYHTKAIHLEPLPETMLDDAKASLVPDLSLVDNESSETPIIIEVCKTAGLKGDLRKVIQLIDDGIYGIREGFVYNYKTQQWLRYRFGDGGLTTESSFSEILNLDLNTFL,not soluble
16,MPLYKLTYFDARGYAEPARILFHLAGVPFEDNRLTHGDGSWEKIKDKTPFGQVPVLSVDGFDIPQSAAIIRYLANKFGYAGKTPEEQAWADAIVDQFKDFMGAFRQLIMAQRSGKPAEEIAKISSEVAIPARDSYFKILNGLLEKSKSGFLVGDGLTFADIVVVENLTTLEKNQFFTASEHPKLSALREKVHAVPAIKTWVATRPDTQF,not soluble
17,VQQLSLFGSIGDDGYDLLISTLTTISGNPPLLYNSLCTVWKPNPSYDVENVNSRNQLVEPNRIKLSKEVPFSYLIDETMMDKPLNFRILKSFTNDKIPLNYAMTRNILHNTVPQVTNFNSTNEDQNNSKHTEDTVNESRNSDDIIDVDMDASPAPSNESCSPWSLQISDIPAAGNNRSVSMQTIAETIILSSAGKNSSVSSLMNGLGYVFEFQYLTIGVKFFMKHGLILELQKIWQIEEAGNSQITSGGFLLKAYINVSRGTDIDRINYTETVLMNLKKELQGYIELSVPDRQSMDSRVAHGNILIAAALEHHHHHH,soluble
18,MVAQQKNLEGYVGFANLPNQVYRKSVKRGFEFTLMVVGESGLGKSTLINSLFLTDLYSPEYPGPSHRIKKTVQVEQSKVLIKEGGVQLLLTIVDTPGFGDAVDNSNCWQPVIDYIDSKFEDYLNAESRVNRRQMPDNRVQCCLYFIAPSGHGLKPLDIEFMKRLHEKVNIIPLIAKADTLTPEECQQFKKQIMKEIQEHKIKIYEFPETDDEEENKLVKKIKDRLPLAVVGSNTIIEVNGKRVRGRQYPWGVAEVENGEHCDFTILRNMLIRTHMQDLKDVTNNVHYENYRSRKLAAVTYNGVDNNKNKGQLTKSPLAQMEEERREHVAKMKKMEMEMEQVFEMKVKEKVQKLKDSEAELQRRHEQMKKNLEAQHKELEEKRRQFEDEKANWEAQQRILEQQNSSRTLEKNKKKGKIF,soluble
